In patent publication US20220396819A1, “METHOD FOR PRODUCING PEPTIDE HAVING PHYSIOLOGICAL ACTIVITY, AND PEPTIDE COMPRISING SHORT LINKER” (priority 2019, published 2022):
Like-named read-outs stand apart in the source and are kept apart here. Positions of bridges follow the written chain, without caps; N, C: chain ends. No end group written: not given here.

Columns and labels:
[1] = target: T1, thrombopoietin receptor c-Mpl (human, UniProt P40238 26-635); test: cell-based or functional assay
T1 sequence (looked up): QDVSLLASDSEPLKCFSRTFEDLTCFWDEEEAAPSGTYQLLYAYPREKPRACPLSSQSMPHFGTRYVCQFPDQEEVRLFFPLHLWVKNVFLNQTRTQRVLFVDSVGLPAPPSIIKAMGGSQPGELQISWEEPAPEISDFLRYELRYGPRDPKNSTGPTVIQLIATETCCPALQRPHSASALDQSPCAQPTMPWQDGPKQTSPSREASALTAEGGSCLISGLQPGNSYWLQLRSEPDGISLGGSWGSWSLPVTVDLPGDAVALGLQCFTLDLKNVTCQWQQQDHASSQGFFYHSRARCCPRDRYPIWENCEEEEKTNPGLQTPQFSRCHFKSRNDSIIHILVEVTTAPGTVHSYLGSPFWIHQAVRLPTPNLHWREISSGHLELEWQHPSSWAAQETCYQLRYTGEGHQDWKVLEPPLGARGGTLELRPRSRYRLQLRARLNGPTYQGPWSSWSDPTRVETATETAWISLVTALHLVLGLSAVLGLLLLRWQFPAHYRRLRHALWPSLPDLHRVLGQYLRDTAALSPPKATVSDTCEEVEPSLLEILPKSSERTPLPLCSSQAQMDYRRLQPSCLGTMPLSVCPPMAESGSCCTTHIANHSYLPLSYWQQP

VEGFR [2] = target: T2, VEGFR (Homo sapiens, UniProt P35968); test: VEGF inhibitory ability, luciferase assay in VEGFR/NFAT Reporter HEK293 cells; assay type: cell-based
T2 construct: host or cells: VEGFR/NFAT Reporter HEK293 cells
Experimental: The VEGF inhibitory ability of the VEGFR_D2-PAS heterodimer peptide was evaluated by luciferase assay. 40,000 cell/well VEGFR/NFAT Reporter HEK293 cells (BPS Bioscience) were seeded and incubated overnight in a 5% CO2 incubator at 37° C. The cells were incubated overnight in Assay medium (MEM medium (Nacalai Tesque), 1×MEM Non-Essential Amino Acids Solution (Thermo Fisher Scientific), 1 mM Sodium Pyruvate (Nacalai Tesque), 1% Penicillin-Streptomycin (Sigma Aldrich), and 0.3% FBS (Thermo Fisher Scientific)) to starvation. […] The cells were stimulated by culturing in a 5% CO2 incubator at 37° C. for 4 hours.
One-Glo Luciferase Assay System (Promega) was used to detect the signal intensity. Medium supernatant in an amount of 50 μL was removed, 50 μL of One-Glo reagent was added, and the cells were lysed for 10 minutes at room temperature. The luminescence emitted from the cell lysate solution was detected with a Nivo plate reader (Perkin Elmer) to quantify the activation of the VEGFR-NFAT pathway, and the relative signal activity value for the sample without addition of evaluation compound was determined and used as relative receptor activity.
The VEGF inhibitory ability of the cell-free expressed VEGFR_D2-PAS heterodimer peptide was evaluated by luciferase assay. 40,000 cell/well VEGFR/NFAT Reporter HEK293 cells (BPS Bioscience) were seeded and incubated overnight in a 5% CO2 incubator at 37° C. The cells were incubated overnight in Assay medium (MEM medium (Nacalai Tesque), 1×MEM Non-Essential Amino Acids Solution (Thermo Fisher Scientific), 1 mM Sodium Pyruvate (Nacalai Tesque), 1% Penicillin-Streptomycin (Sigma Aldrich), and 0.3% FBS (Thermo Fisher Scientific)) to starvation. To the Assay medium, 100 μL of 10 ng/mL human recombinant VEGF (R&D Systems) was added, and further, MAET-VEGFR_D2-PAS16, MAET-VEGFR_D2-PAS49-b, MAET-VEGFR_D2-PAS100-b, or a cell-free expression solution containing MAET-VEGFR_D2-GS16, or a cell-free expression solution with unexpressed peptide was added at a predetermined dilution factor, and 100 μL of the Assay medium was added to the cells. The cells were stimulated by culturing in a 5% CO2 incubator at 37° C. for 4 hours.
The VEGF inhibitory ability of the VEGFR_D2-PAS heterodimer peptide linker variant was evaluated by luciferase assay. 40,000 cell/well VEGFR/NFAT Reporter HEK293 cells (BPS Bioscience) were seeded and incubated overnight in a 5% CO2 incubator at 37° C. The cells were incubated overnight in Assay medium (MEM medium (Nacalai Tesque), 1×MEM Non-Essential Amino Acids Solution (Thermo Fisher Scientific), 1 mM Sodium Pyruvate (Nacalai Tesque), 1% Penicillin-Streptomycin (Sigma Aldrich), and 0.3% FBS (Thermo Fisher Scientific)) to starvation. To the Assay medium, 10 ng/mL human recombinant VEGF (R&D Systems) was added, and further, a culture supernatant containing VEGFR_D2-PAS16, VEGFR_D2-PAS49, or VEGFR_D2-PAS100 at a predetermined concentration was added, and 100 μL of the Assay medium was added to the cells. The cells were stimulated by culturing in a 5% CO2 incubator at 37° C. for 4 hours. Note that VEGFR_D2-PAS16 was obtained according to the method described in Example 27.

EpoR = target: T3, EpoR (UniProt P19235 25-508, limits assumed); test: cell-based or functional assay
T3 sequence (looked up): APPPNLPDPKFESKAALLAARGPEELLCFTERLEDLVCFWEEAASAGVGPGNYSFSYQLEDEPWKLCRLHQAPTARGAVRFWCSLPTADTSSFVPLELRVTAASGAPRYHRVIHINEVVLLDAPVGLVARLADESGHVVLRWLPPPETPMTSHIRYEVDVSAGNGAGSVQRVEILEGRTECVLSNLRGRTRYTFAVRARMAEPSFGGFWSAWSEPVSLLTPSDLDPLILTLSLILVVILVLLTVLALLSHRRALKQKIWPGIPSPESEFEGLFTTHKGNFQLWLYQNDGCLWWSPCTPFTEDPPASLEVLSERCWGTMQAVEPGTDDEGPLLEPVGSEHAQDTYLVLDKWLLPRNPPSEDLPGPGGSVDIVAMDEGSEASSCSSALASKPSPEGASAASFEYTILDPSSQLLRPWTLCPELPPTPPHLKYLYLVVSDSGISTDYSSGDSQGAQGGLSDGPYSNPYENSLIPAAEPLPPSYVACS

VEGFR [3] = target: VEGFR (UniProt P35968 20-1356, limits assumed); test: cell-based or functional assay
Sequence of VEGFR (UniProt P35968 20-1356, limits assumed) (P35968 20-1356 limits assumed): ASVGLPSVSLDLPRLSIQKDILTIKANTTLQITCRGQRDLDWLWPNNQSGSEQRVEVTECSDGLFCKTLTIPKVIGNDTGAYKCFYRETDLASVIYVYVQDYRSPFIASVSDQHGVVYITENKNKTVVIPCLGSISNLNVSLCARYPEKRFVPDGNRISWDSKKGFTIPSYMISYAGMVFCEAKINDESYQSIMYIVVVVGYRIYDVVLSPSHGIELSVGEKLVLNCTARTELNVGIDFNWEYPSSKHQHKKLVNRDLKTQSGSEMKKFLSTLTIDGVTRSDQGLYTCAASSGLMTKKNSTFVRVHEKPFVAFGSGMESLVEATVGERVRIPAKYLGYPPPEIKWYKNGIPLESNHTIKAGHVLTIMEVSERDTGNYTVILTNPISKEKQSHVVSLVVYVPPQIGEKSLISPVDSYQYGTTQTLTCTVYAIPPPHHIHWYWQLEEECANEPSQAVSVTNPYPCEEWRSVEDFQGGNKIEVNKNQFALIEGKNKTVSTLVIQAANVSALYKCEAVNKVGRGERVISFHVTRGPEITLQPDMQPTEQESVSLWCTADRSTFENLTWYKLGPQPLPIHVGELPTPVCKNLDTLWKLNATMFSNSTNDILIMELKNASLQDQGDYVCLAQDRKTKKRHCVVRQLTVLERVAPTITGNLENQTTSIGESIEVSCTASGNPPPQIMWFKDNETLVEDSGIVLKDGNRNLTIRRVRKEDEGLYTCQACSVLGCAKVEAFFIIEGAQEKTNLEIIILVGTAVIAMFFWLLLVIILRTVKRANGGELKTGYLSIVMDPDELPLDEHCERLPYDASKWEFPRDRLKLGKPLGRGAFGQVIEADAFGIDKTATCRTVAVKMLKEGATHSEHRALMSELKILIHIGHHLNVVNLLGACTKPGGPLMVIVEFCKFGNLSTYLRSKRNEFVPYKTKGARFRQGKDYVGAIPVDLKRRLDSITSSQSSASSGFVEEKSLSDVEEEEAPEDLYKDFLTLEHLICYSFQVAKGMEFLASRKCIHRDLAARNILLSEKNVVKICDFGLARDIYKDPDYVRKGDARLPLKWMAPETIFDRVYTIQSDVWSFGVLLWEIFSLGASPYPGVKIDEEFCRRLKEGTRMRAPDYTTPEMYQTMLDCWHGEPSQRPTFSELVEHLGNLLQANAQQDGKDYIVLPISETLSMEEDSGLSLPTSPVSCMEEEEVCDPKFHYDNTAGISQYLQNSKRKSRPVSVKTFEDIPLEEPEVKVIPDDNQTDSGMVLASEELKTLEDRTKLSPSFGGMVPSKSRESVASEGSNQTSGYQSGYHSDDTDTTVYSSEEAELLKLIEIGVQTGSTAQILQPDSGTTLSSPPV

T2 sequence (P35968 20-1356): as the sequence (P35968 20-1356 limits assumed) above

With “recombinant human TPO (from UniProt P40225 22-195) (ligand)” the relative CREB phosphorylation level (pCREB ELISA, HEL cells, 100 ng/mL rhTPO) [1] was 143%.

With “AETAGPTWCEDDWYYCWLFGTAAPAAPAPAAPAAPAPVCWEDSWGGEVCWLFGT (disulfide 9-16, 39-49) [AET-VEGFR_D2-PAS16]” the IC50 (VEGFR [2]) was 0.26 nM and the “VEGF inhibitory activity (relative VEGF activity)” value (VEGFR [2]; Example 29, purified by HPLC, 10 ng/mL VEGF, 4 hours, FIG. 47) was “higher inhibitory activity than the monomer peptides P3 and Pm4”.

“AETAGPTWCEDDWYYCWLFGTGGGGSGGGGSGGGGSGVCWEDSWGGEVCWLFGT (disulfide 9-16, 39-49) [AET-VEGFR_D2-GS16]” gave an IC50 (VEGFR [2]) of 2.93 nM.

B1: AET-EPO-GS22 (peptide)
peptide: AETGGLYACHMGPMTWVCQPLRGGGGGSGGGGSGGGGSGGGGSGGGGLYACHMGPMTWVCQPLRG
modifications: disulfide 9-18, 51-60
With B1 the “EC50” value (EpoR) was 1.3 ng/mL.

B2: AET-EPO-PAS49 (peptide)
peptide: AETGGLYACHMGPMTWVCQPLRGAAPAAPAPAAPAAPAPAAPAAPAPAAPAAPAPAAPAAPAPAAPAAPAPAGGLYACHMGPMTWVCQPLRG
modifications: two disulfide bonds in the molecule
For B2, the “EC50” value (EpoR) was 4.3 ng/mL.

B3: TPO2-PAS49 (peptide)
peptide: GGCADGPTLREWISFCGGAAPAAPAPAAPAAPAPAAPAAPAPAAPAAPAPAAPAAPAPAAPAAPAPAGGCADGPTLREWISFCGG
modifications: two disulfide bonds in the molecule
With B3 the “relative CREB phosphorylation level (pCREB ELISA, HEL cells)” value [1] was 131%.

B4: TPO2-PAS100 (peptide)
peptide: GGCADGPTLREWISFCGGAAPAAPAPAAPAAPAPAAPAAPAPAAPAAPAPAAPAAPAPAAPAAPAPAAPAAPAPAAPAAPAPAAPAAPAPAAPAAPAPAAPAAPAPAAPAAPAPAAPAGGCADGPTLREWISFCGG
modifications: two disulfide bonds in the molecule
In the case of B4, the “relative CREB phosphorylation level (pCREB ELISA, HEL cells)” value [1] is reported as 112%.

For GGCADGPTLREWISFCGGAAPAAPAPGGCADGPTLREWISFCGG (disulfide 3-16, 29-42) [TPO2-PAS8], the “relative CREB phosphorylation level (pCREB ELISA, HEL cells)” value [1] was 136%.

B5: MAETAGPTWCEDDWYYCWLFGTSAPSPSSAPASASAPASPASASASASPASSPASASSASPAASSASPASSVCWEDSWGGEVCWLFGT (peptide)
chain: MAETAGPTWCEDDWYYCWLFGTSAPSPSSAPASASAPASPASASASASPASSPASASSASPAASSASPASSVCWEDSWGGEVCWLFGT
modifications: MAET-VEGFR_D2-PAS49-b; DISULFID (10)..(17) Disulfid bridge between Cys-10 and Cys-17; DISULFID (73)..(83) Disulfid bridge between Cys-73 and Cys-83
B5 was tested, and the “VEGF inhibitory activity (relative VEGF activity)” value (VEGFR [2]; Example 39, cell-free expression solution, 10 ng/mL VEGF, FIGS. 71 and 72) was “higher inhibitory activity than MAET-VEGFR_D2-PAS100-b”.

B6: AET-EPO-PAS100 (peptide)
peptide: AETGGLYACHMGPMTWVCQPLRGAAPAAPAPAAPAAPAPAAPAAPAPAAPAAPAPAAPAAPAPAAPAAPAPAAPAAPAPAAPAAPAPAAPAAPAPAAPAAPAPAAPAAPAPAAPAAPAPAAPAGGLYACHMGPMTWVCQPLRG
modifications: two disulfide bonds in the molecule
For B6, the “EC50” value (EpoR) was 6.6 ng/mL.

B7: AET-VEGFR_D2-PAS49 (peptide)
peptide: AETAGPTWCEDDWYYCWLFGTAAPAAPAPAAPAAPAPAAPAAPAPAAPAAPAPAAPAAPAPAAPAAPAPAVCWEDSWGGEVCWLFGT
modifications: two disulfide bonds in the molecule
In the case of B7, the “IC50” value (VEGFR [3]) is reported as 12 ng/mL.

B8: AET-VEGFR_D2-GS16 (peptide)
peptide: AETAGPTWCEDDWYYCWLFGTGGGGSGGGGSGGGGSGVCWEDSWGGEVCWLFGT
modifications: disulfide 9-16, 39-49
With B8 the “IC50” value (VEGFR [3]) was 16 ng/mL.

B9: AET-VEGFR_D2-PAS100 (peptide)
peptide: AETAGPTWCEDDWYYCWLFGTAAPAAPAPAAPAAPAPAAPAAPAPAAPAAPAPAAPAAPAPAAPAAPAPAAPAAPAPAAPAAPAPAAPAAPAPAAPAAPAPAAPAAPAPAAPAAPAPAAPAVCWEDSWGGEVCWLFGT
modifications: two disulfide bonds in the molecule
With B9 the “IC50” value (VEGFR [2]; Example 46, culture supernatant, 10 ng/mL VEGF, 4 hours, Table 8) was 86 ng/mL and the “IC50” value (VEGFR [3]) was 86 ng/mL.

B10: AET-EPO-GS8 (peptide)
peptide: AETGGLYACHMGPMTWVCQPLRGGGGGSGGGGGLYACHMGPMTWVCQPLRG
modifications: disulfide 9-18, 37-46
For B10, the “EC50” value (EpoR) was 0.53 ng/mL.

GGCADGPTLREWISFCGGGGGGSGGGGGCADGPTLREWISFCGG (disulfide 3-16, 29-42) [TPO2-GS8] was tested, and the “relative CREB phosphorylation level (pCREB ELISA, HEL cells)” value [1] was 121%.

B11: AET-VEGFR_D2-PAS16 (peptide)
peptide: AETAGPTWCEDDWYYCWLFGTAAPAAPAPAAPAAPAPVCWEDSWGGEVCWLFGT
modifications: disulfide 9-16, 39-49
B11 was tested, and the “IC50” value (VEGFR [3]) was 1.5 ng/mL.
